Measurements published in the RNAGym collection of RNA variant scans (doi:10.7554/elife.80360).

B1: Twister Ribozyme (parent)
chain: AACACUGCCAAUGCCGGUCCCAAGCCCGGAUAAAAGUGGAGGGGGCGG

Variants of: B1
Test: self-cleavage, relative activity (ratio to wild type); higher = more cleavage; co-transcriptional

Row | Variant | self-cleavage
1 | AACACUGCCAAUGCCGGUCUCAAGCCCGGAUAAAAGUGGAGGGGGGGG | 0.815
2 | AACACUGCCAAUGCCGGUCUCAAGCCCGGAUAAAAGUGGAGGGGGAGG | 0.784
3 | AACACUGCCAAUGCCGGUCUCAAGCCCGGAUAAAAGUGGAGGGGGUGG | 0.969
4 | AACACUGCCAAUGCCGGUCUCAAGCCCGGAUAAAAGUGUAGGGGGCGG | 0.15
5 | AACACUGCCAAUGCCGGUCUCAAGCCCGGAUAAAAGUGCAGGGGGCGG | 0.0926
6 | AACACUGCCAAUGCCGGUCUCAAGACCGGAUAAAAGUGGAGGGGGCGG | 0.078
7 | AACACUGCCAAUGCCGGUCCAAAGCCCGGAUCAAAGUGGAGGGGGCGG | 0.169
8 | AACACUGCCAAUGCCGGUCCAAAGCCCGGAUUAAAGUGGAGGGGGCGG | 0.152
9 | AACACUGCCAAUGCCGGUCUCAAGCCCGGAUAAAAGUGGACGGGGCGG | 0.133
10 | AACACUGCCAAUGCCGGUCUCAAGCCCGGAUAAAAGUGGAGGGGGCGC | 1.04
11 | AACACUGCCAAUGCCGGUCCAAAGCCCGGAUAAAAGAGGAGGGGGCGG | 0.105
12 | AACACUGCCAAUGCCGGUCUCAAGCCCGGAAAAAAGUGGAGGGGGCGG | 0.68
13 | AACACUGCCAAUGCCGGUCCGCAGCCCGGAUAAAAGUGGAGGGGGCGG | 0.0386
14 | AACACUGCCAAUGCCGGUCCGUAGCCCGGAUAAAAGUGGAGGGGGCGG | 0.118
15 | AACACUGCCAAUGCCGGUCCGGAGCCCGGAUAAAAGUGGAGGGGGCGG | 0.135
16 | AACACUGCCAAUGCCGGUCUCAAGCCCGGAUUAAAGUGGAGGGGGCGG | 0.887
17 | AACACUGCCAAUGCCGGUCUCAAGCCCGGAUCAAAGUGGAGGGGGCGG | 0.758
18 | AACACUGCCAAUGCCGGUCUCAAGCCCGGAUGAAAGUGGAGGGGGCGG | 0.82
19 | AACACUGCCAAUGCCGGUCCGAAGUCCGGAUAAAAGUGGAGGGGGCGG | 0.0625
20 | AACACUGCCAAUGCCGGUCCGAAGGCCGGAUAAAAGUGGAGGGGGCGG | 0.0701
21 | AACACUGCCAAUGCCGGUCCGAUGCCCGGAUAAAAGUGGAGGGGGCGG | 0.032
22 | AACACUGCCAAUGCCGGUCCGACGCCCGGAUAAAAGUGGAGGGGGCGG | 0.0558
23 | AACACUGCCAAUGCCGGUCCGAGGCCCGGAUAAAAGUGGAGGGGGCGG | 0.11
24 | AACACUGCCAAUGCCGGUCUCAAGCCCGGAUAAAAGUGGAGGGGCCGG | 0.425
25 | AACACUGCCAAUGCCGGUCUCAAGCCCGGAUAAAAGUGGAGGGGACGG | 0.838
26 | AACACUGCCAAUGCCGGUCUCAAGCCCUGAUAAAAGUGGAGGGGGCGG | 0.906
27 | AACACUGCCAAUGCCGGUCCGAAGCCCGGCUAAAAGUGGAGGGGGCGG | 0.0405

Row | Variant | self-cleavage
28 | AACACUGCCAAUGCCGGUCCGAAGCCCGGGUAAAAGUGGAGGGGGCGG | 0.0493
29 | AACACUGCCAAUGCCGGUCCGAAGCCCGGAUUAAAGUGGAGGGGGCGG | 0.196
30 | AACACUGCCAAUGCCGGUCCAAAGCCCGGAUAAAAGUGCAGGGGGCGG | 0.116
31 | AACACUGCCAAUGCCGGUCCAAAGCCCGGAUAAAAGUGGGGGGGGCGG | 0.0639
32 | AACACUGCCAAUGCCGGUCCAAAGCCCGGCUAAAAGUGGAGGGGGCGG | 0.079
33 | AACACUGCCAAUGCCGGUCCAAAGCCCGGUUAAAAGUGGAGGGGGCGG | 0.152
34 | AACACUGCCAAUGCCGGUCCAAAGCCCGGAGAAAAGUGGAGGGGGCGG | 0.119
35 | AACACUGCCAAUGCCGGUCCAAAGCCCGGAAAAAAGUGGAGGGGGCGG | 0.0618
36 | AACACUGCCAAUGCCGGUCCAAAGCCCGGACAAAAGUGGAGGGGGCGG | 0.153
37 | AACACUGCCAAUGCCGGUCCGAAGCACGGAUAAAAGUGGAGGGGGCGG | 0.0789
38 | AACACUGCCAAUGCCGGUCCGAAGCUCGGAUAAAAGUGGAGGGGGCGG | 0.0515
39 | AACACUGCCAAUGCCGGUCCAAAGGCCGGAUAAAAGUGGAGGGGGCGG | 0.0507
40 | AACACUGCCAAUGCCGGUCCAAAGACCGGAUAAAAGUGGAGGGGGCGG | 0.101
41 | AACACUGCCAAUGCCGGUCCAAAGUCCGGAUAAAAGUGGAGGGGGCGG | 0.0609
42 | AACACUGCCAAUGCCGGUCUCAAGCCCGAAUAAAAGUGGAGGGGGCGG | 0.81
43 | AACACUGCCAAUGCCGGUCCGAAGCCCGGAUAAAAGUGGAGGGGGAGG | 0.115
44 | AACACUGCCAAUGCCGGUCCGAAGCCCGGAUAAAAGUGGAGGGGGGGG | 0.113
45 | AACACUGCCAAUGCCGGUCUCAAGCCCGGAUAAAAGUGGAGGGGGCAG | 0.859
46 | AACACUGCCAAUGCCGGUCUCAAGCCCGGAUAAAAGUGGAGGGGGCGG | 1.01
47 | AACACUGCCAAUGCCGGUCUCAAGCCCGGAUAAAAGUGGCGGGGGCGG | 0.0976
48 | AACACUGCCAAUGCCGGUCCAAAGCCCGGAUAGAAGUGGAGGGGGCGG | 0.0711
49 | AACACUGCCAAUGCCGGUCCAAAGCCCGGAUACAAGUGGAGGGGGCGG | 0.112
50 | AACACUGCCAAUGCCGGUCCAAAGCCCGGAUAUAAGUGGAGGGGGCGG | 0.102
51 | AACACUGCCAAUGCCGGUCCAAAGCCCAGAUAAAAGUGGAGGGGGCGG | 0.0792
52 | AACACUGCCAAUGCCGGUCUCAAGCCCGGAUAUAAGUGGAGGGGGCGG | 0.778
53 | AACACUGCCAAUGCCGGUCUAAAGCCCGGAUAAAAGUGGAGGGGGCGG | 0.115
54 | AACACUGCCAAUGCCGGUCUUAAGCCCGGAUAAAAGUGGAGGGGGCGG | 0.119
